According to patent US5837843, “Modified protein C” (Oklahoma Medical Research Foundation, dated 1998):

B1: human protein S (other)
chain: ANSLLEETKQGNLERECIEELCNKEEAREVFENDPETDYFYPKYLVCLRSFQTGLFTAARQSTNAYPDLRSCVNAIPDQCSPLPCNEDGYMSCKDGKASFTCTCKPGWQGEKCEFDINECKDPSNINGGCSQICDNTPGSYHCSCKNGFVMLSNKKDCKDVDECSLKPSICGTAVCKNIPGDFECECPEGYRYNLKSKSCEDIDECSENMCAQLCVNYPGGYTCYCDGKKGFKLAQDQKSCEVVSVCLPLNLDTKYELLYLAEQFAGVVLYLKFRLPEISRFSAEFDFRTYDSEGVILYAESIDHSAWLLIALRGGKIEVQLKNEHTSKITTGGDVINNGLWNMVSVEELEHSISIKIAKEAVMDINKPGPLFKPENGLLETKVYFAGFPRKVESELIKPINPRLDGCIRSWNLMKQGASGIKEIIQEKQNKHCLVTVEKGSYYPGSGIAQFHIDYNNVSSAEGWHVNVTLNIRPSTGTGVMLALVSGNNTVPFAVSLVDSTSEKSQDILLSVENTVIYRIQALSLCSDQQSHLEFRVNRNNLELSTPLKIETISHEDLQRQLAVLDKAMKAKVATYLGGLPDVPFSATPVNAFYNGCMEVNINGVQLDLDEAISKHNDIRAHSCPSVWKKTKNS

Key:
[1] = molecular target: factor Va
[2] = molecular target: human activated protein C (APC), wild type (human, UniProt P04070, gamma carboxylglutamic acid (Gla) residues in the amino-terminal Gla domain (x in Sequence ID No. 2); Gla content 8.7±0.3 per mole for protein C); experiment: cell-based or functional assay

factor Va inactivation (three stage assay, residual factor Va activity in prothrombinase) (times more active than wild type APC) [1] | factor Va inactivation by APC with and without protein S [2] | Molecule
5 |  | APC-PT Gla (activated chimeric protein C with the Gla domain and hydrophobic stack of prothrombin) (from UniProt P04070) (enzyme)
 | 2 fold | B1
